B1: LIM domain-binding protein 1 (Mus musculus), P70662 (parent)
chain: MSVGCACPGCSSKSFKLYSPKEPPNGNAFPPFHPGTMLDRDVGPTPMYPPTYLEPGIGRHTPYGNQTDYRIFELNKRLQNWTEECDNLWWDAFTTEFFEDDAMLTITFCLEDGPKRYTIGRTLIPRYFRSIFEGGATELYYVLKHPKEAFHSNFVSLDCDQGSMVTQHGKPMFTQVCVEGRLYLEFMFDDMMRIKTWHFSIRQHRELIPRSILAMHAQDPQMLDQLSKNITRCGLSNSTLNYLRLCVILEPMQELMSRHKTYSLSPRDCLKTCLFQKWQRMVAPPAEPARQQPSKRRKRKMSGGSTMSSGGGNTNNSNSKKKSPASTFALSSQVPDVMVVGEPTLMGGEFGDEDERLITRLENTQFDAANGIDDEDSFNNSPALGANSPWNSKPPSSQESKSENPTSQASQ
partner: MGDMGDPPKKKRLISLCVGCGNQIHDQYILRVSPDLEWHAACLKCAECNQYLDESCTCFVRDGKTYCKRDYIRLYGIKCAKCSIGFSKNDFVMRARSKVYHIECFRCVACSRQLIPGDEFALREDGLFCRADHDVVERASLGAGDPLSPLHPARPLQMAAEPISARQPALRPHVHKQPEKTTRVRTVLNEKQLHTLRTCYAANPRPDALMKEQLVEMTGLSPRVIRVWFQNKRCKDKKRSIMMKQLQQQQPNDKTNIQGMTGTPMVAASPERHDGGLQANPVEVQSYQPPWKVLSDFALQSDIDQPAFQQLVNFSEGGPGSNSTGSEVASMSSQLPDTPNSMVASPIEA
B2: LIM domain-binding protein 1 (Mus musculus), P70662 (parent)
chain: B1 chain
partner: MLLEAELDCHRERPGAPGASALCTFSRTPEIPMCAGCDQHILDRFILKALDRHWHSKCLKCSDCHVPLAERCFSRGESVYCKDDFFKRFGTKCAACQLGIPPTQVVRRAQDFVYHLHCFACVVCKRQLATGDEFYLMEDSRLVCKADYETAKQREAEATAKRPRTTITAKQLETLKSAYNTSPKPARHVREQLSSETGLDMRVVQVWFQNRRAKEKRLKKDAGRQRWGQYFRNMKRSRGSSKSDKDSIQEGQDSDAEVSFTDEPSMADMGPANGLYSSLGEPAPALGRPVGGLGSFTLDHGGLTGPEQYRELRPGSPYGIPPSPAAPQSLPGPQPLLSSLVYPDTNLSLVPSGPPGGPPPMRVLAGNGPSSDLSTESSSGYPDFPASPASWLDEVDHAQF
B3: Insulin gene enhancer protein ISL-1 (Mus musculus), P61372 (parent)
chain: B1 partner
partner: B2 partner

Variants of: B1
Conditions: with isl1_mouse Isl1, P61372

Variant	effect of a mutation on the interaction
T359A;R360A;L361A	decreasing interaction

Variants of: B1
Conditions: with isl1_mouse Isl1, P61372
Remark: another data set of the same source

Variant	effect of a mutation on the interaction
T359A	disrupting interaction

Variants of: B1
Conditions: with isl1_mouse Isl1, P61372
Remark: another data set of the same source

Variant	effect of a mutation on the interaction
R356A;L357A;I358A	disrupting interaction

Variants of: B2
Conditions: with lhx3_mouse Lhx3, P50481

Variant	effect of a mutation on the interaction
M338A	disrupting interaction
I358A	disrupting interaction

Variants of: B2
Conditions: with lhx3_mouse Lhx3, P50481
Remark: another data set of the same source

Variant	effect of a mutation on the interaction
L345A	disrupting interaction

Variants of: B2
Conditions: with lhx3_mouse Lhx3, P50481
Remark: another data set of the same source

Variant	effect of a mutation on the interaction
V339A	disrupting interaction

Variants of: B2
Conditions: with lhx3_mouse Lhx3, P50481
Remark: another data set of the same source

Variant	effect of a mutation on the interaction
T344A	disrupting interaction

Variants of: B3
Conditions: with lhx3_mouse Lhx3, P50481

Variant	effect of a mutation on the interaction
A267G	disrupting interaction

Variants of: B3
Conditions: with lhx3_mouse Lhx3, P50481
Remark: another data set of the same source

Variant	effect of a mutation on the interaction
P264A	disrupting interaction
T263A	disrupting interaction
G262A	disrupting interaction

Variants of: B3
Conditions: with lhx3_mouse Lhx3, P50481
Remark: another data set of the same source

Variant	effect of a mutation on the interaction
M265A	disrupting interaction

— IntAct's records for PubMed 18583962
